According to patent publication US20180155451A1 (published 2018):

molecular target: T1, FcγRIa extracellular domain with C-terminal His tag (human, UniProt P12314 16-292); assay: SPR Biacore, antibody captured, FcγRIa analyte; vs GpH7-B3/GpL16-k0 = 100
T1 construct: extracellular domain; Expressed in FreeStyle293 cells; analyte in Biacore; also called FcgRI; FcgRIa
T1 sequence (P12314 16-292): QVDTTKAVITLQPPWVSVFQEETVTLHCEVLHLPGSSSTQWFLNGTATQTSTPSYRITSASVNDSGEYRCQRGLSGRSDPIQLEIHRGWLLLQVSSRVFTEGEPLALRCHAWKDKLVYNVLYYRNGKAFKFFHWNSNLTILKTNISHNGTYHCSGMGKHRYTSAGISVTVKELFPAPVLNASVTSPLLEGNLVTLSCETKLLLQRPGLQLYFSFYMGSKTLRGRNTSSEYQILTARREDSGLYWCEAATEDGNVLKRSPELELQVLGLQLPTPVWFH

Ho/Con_1a	Binder
101 relative (control = 100)	GpH7-B3 variant E269_08L/GpL16-k0 (Ho Ab) (antibody, human IgG1, kappa, Ho Ab: alteration in both H chains) heavy: not shown light: DIVMTQSPLSLPVTPGEPASISCQASESLVHSNRNTYLHWYLQKPGQSPQLLIYKVSNRFSGVPDRFSGSGSGTDFTLKISRVEAEDVGVYYCSQNTHVPPTFGQGTKVEIERTVAAPSVFIFPPSDEQLKSGTASVVCLLNNFYPREAKVQWKVDNALQSGNSQESVTEQDSKDSTYSLSSTLTLSKADYEKHKVYACEVTHQGLSSPVTKSFNRGEC
100 relative (control = 100)	GpH7-B3 variant E269_15Y/GpL16-k0 (Ho Ab) (antibody, human IgG1, kappa, Ho Ab: alteration in both H chains) heavy: not shown light: DIVMTQSPLSLPVTPGEPASISCQASESLVHSNRNTYLHWYLQKPGQSPQLLIYKVSNRFSGVPDRFSGSGSGTDFTLKISRVEAEDVGVYYCSQNTHVPPTFGQGTKVEIERTVAAPSVFIFPPSDEQLKSGTASVVCLLNNFYPREAKVQWKVDNALQSGNSQESVTEQDSKDSTYSLSSTLTLSKADYEKHKVYACEVTHQGLSSPVTKSFNRGEC
100 relative (control = 100)	GpH7-B3 variant E333_01G/GpL16-k0 (Ho Ab) (antibody, human IgG1, kappa, Ho Ab: alteration in both H chains) heavy: not shown light: DIVMTQSPLSLPVTPGEPASISCQASESLVHSNRNTYLHWYLQKPGQSPQLLIYKVSNRFSGVPDRFSGSGSGTDFTLKISRVEAEDVGVYYCSQNTHVPPTFGQGTKVEIERTVAAPSVFIFPPSDEQLKSGTASVVCLLNNFYPREAKVQWKVDNALQSGNSQESVTEQDSKDSTYSLSSTLTLSKADYEKHKVYACEVTHQGLSSPVTKSFNRGEC
101 relative (control = 100)	GpH7-B3 variant E333_13S/GpL16-k0 (Ho Ab) (antibody, human IgG1, kappa, Ho Ab: alteration in both H chains) heavy: not shown light: DIVMTQSPLSLPVTPGEPASISCQASESLVHSNRNTYLHWYLQKPGQSPQLLIYKVSNRFSGVPDRFSGSGSGTDFTLKISRVEAEDVGVYYCSQNTHVPPTFGQGTKVEIERTVAAPSVFIFPPSDEQLKSGTASVVCLLNNFYPREAKVQWKVDNALQSGNSQESVTEQDSKDSTYSLSSTLTLSKADYEKHKVYACEVTHQGLSSPVTKSFNRGEC
104 relative (control = 100)	GpH7-B3 variant G236_20W/GpL16-k0 (Ho Ab) (antibody, human IgG1, kappa, Ho Ab: alteration in both H chains) heavy: not shown light: DIVMTQSPLSLPVTPGEPASISCQASESLVHSNRNTYLHWYLQKPGQSPQLLIYKVSNRFSGVPDRFSGSGSGTDFTLKISRVEAEDVGVYYCSQNTHVPPTFGQGTKVEIERTVAAPSVFIFPPSDEQLKSGTASVVCLLNNFYPREAKVQWKVDNALQSGNSQESVTEQDSKDSTYSLSSTLTLSKADYEKHKVYACEVTHQGLSSPVTKSFNRGEC
104 relative (control = 100)	GpH7-B3 variant I336_01G/GpL16-k0 (Ho Ab) (antibody, human IgG1, kappa, Ho Ab: alteration in both H chains) heavy: not shown light: DIVMTQSPLSLPVTPGEPASISCQASESLVHSNRNTYLHWYLQKPGQSPQLLIYKVSNRFSGVPDRFSGSGSGTDFTLKISRVEAEDVGVYYCSQNTHVPPTFGQGTKVEIERTVAAPSVFIFPPSDEQLKSGTASVVCLLNNFYPREAKVQWKVDNALQSGNSQESVTEQDSKDSTYSLSSTLTLSKADYEKHKVYACEVTHQGLSSPVTKSFNRGEC
103 relative (control = 100)	GpH7-B3 variant I336_02A/GpL16-k0 (Ho Ab) (antibody, human IgG1, kappa, Ho Ab: alteration in both H chains) heavy: not shown light: DIVMTQSPLSLPVTPGEPASISCQASESLVHSNRNTYLHWYLQKPGQSPQLLIYKVSNRFSGVPDRFSGSGSGTDFTLKISRVEAEDVGVYYCSQNTHVPPTFGQGTKVEIERTVAAPSVFIFPPSDEQLKSGTASVVCLLNNFYPREAKVQWKVDNALQSGNSQESVTEQDSKDSTYSLSSTLTLSKADYEKHKVYACEVTHQGLSSPVTKSFNRGEC
105 relative (control = 100)	GpH7-B3 variant I336_03V/GpL16-k0 (Ho Ab) (antibody, human IgG1, kappa, Ho Ab: alteration in both H chains) heavy: not shown light: DIVMTQSPLSLPVTPGEPASISCQASESLVHSNRNTYLHWYLQKPGQSPQLLIYKVSNRFSGVPDRFSGSGSGTDFTLKISRVEAEDVGVYYCSQNTHVPPTFGQGTKVEIERTVAAPSVFIFPPSDEQLKSGTASVVCLLNNFYPREAKVQWKVDNALQSGNSQESVTEQDSKDSTYSLSSTLTLSKADYEKHKVYACEVTHQGLSSPVTKSFNRGEC
104 relative (control = 100)	GpH7-B3 variant I336_04F/GpL16-k0 (Ho Ab) (antibody, human IgG1, kappa, Ho Ab: alteration in both H chains) heavy: not shown light: DIVMTQSPLSLPVTPGEPASISCQASESLVHSNRNTYLHWYLQKPGQSPQLLIYKVSNRFSGVPDRFSGSGSGTDFTLKISRVEAEDVGVYYCSQNTHVPPTFGQGTKVEIERTVAAPSVFIFPPSDEQLKSGTASVVCLLNNFYPREAKVQWKVDNALQSGNSQESVTEQDSKDSTYSLSSTLTLSKADYEKHKVYACEVTHQGLSSPVTKSFNRGEC
104 relative (control = 100)	GpH7-B3 variant I336_06M/GpL16-k0 (Ho Ab) (antibody, human IgG1, kappa, Ho Ab: alteration in both H chains) heavy: not shown light: DIVMTQSPLSLPVTPGEPASISCQASESLVHSNRNTYLHWYLQKPGQSPQLLIYKVSNRFSGVPDRFSGSGSGTDFTLKISRVEAEDVGVYYCSQNTHVPPTFGQGTKVEIERTVAAPSVFIFPPSDEQLKSGTASVVCLLNNFYPREAKVQWKVDNALQSGNSQESVTEQDSKDSTYSLSSTLTLSKADYEKHKVYACEVTHQGLSSPVTKSFNRGEC
107 relative (control = 100)	GpH7-B3 variant I336_10E/GpL16-k0 (Ho Ab) (antibody, human IgG1, kappa, Ho Ab: alteration in both H chains) heavy: not shown light: DIVMTQSPLSLPVTPGEPASISCQASESLVHSNRNTYLHWYLQKPGQSPQLLIYKVSNRFSGVPDRFSGSGSGTDFTLKISRVEAEDVGVYYCSQNTHVPPTFGQGTKVEIERTVAAPSVFIFPPSDEQLKSGTASVVCLLNNFYPREAKVQWKVDNALQSGNSQESVTEQDSKDSTYSLSSTLTLSKADYEKHKVYACEVTHQGLSSPVTKSFNRGEC
104 relative (control = 100)	GpH7-B3 variant I336_18N/GpL16-k0 (Ho Ab) (antibody, human IgG1, kappa, Ho Ab: alteration in both H chains) heavy: not shown light: DIVMTQSPLSLPVTPGEPASISCQASESLVHSNRNTYLHWYLQKPGQSPQLLIYKVSNRFSGVPDRFSGSGSGTDFTLKISRVEAEDVGVYYCSQNTHVPPTFGQGTKVEIERTVAAPSVFIFPPSDEQLKSGTASVVCLLNNFYPREAKVQWKVDNALQSGNSQESVTEQDSKDSTYSLSSTLTLSKADYEKHKVYACEVTHQGLSSPVTKSFNRGEC
103 relative (control = 100)	GpH7-B3 variant K326_14T/GpL16-k0 (Ho Ab) (antibody, human IgG1, kappa, Ho Ab: alteration in both H chains) heavy: not shown light: DIVMTQSPLSLPVTPGEPASISCQASESLVHSNRNTYLHWYLQKPGQSPQLLIYKVSNRFSGVPDRFSGSGSGTDFTLKISRVEAEDVGVYYCSQNTHVPPTFGQGTKVEIERTVAAPSVFIFPPSDEQLKSGTASVVCLLNNFYPREAKVQWKVDNALQSGNSQESVTEQDSKDSTYSLSSTLTLSKADYEKHKVYACEVTHQGLSSPVTKSFNRGEC
101 relative (control = 100)	GpH7-B3 variant K326_15Y/GpL16-k0 (Ho Ab) (antibody, human IgG1, kappa, Ho Ab: alteration in both H chains) heavy: not shown light: DIVMTQSPLSLPVTPGEPASISCQASESLVHSNRNTYLHWYLQKPGQSPQLLIYKVSNRFSGVPDRFSGSGSGTDFTLKISRVEAEDVGVYYCSQNTHVPPTFGQGTKVEIERTVAAPSVFIFPPSDEQLKSGTASVVCLLNNFYPREAKVQWKVDNALQSGNSQESVTEQDSKDSTYSLSSTLTLSKADYEKHKVYACEVTHQGLSSPVTKSFNRGEC
101 relative (control = 100)	GpH7-B3 variant K326_16H/GpL16-k0 (Ho Ab) (antibody, human IgG1, kappa, Ho Ab: alteration in both H chains) heavy: not shown light: DIVMTQSPLSLPVTPGEPASISCQASESLVHSNRNTYLHWYLQKPGQSPQLLIYKVSNRFSGVPDRFSGSGSGTDFTLKISRVEAEDVGVYYCSQNTHVPPTFGQGTKVEIERTVAAPSVFIFPPSDEQLKSGTASVVCLLNNFYPREAKVQWKVDNALQSGNSQESVTEQDSKDSTYSLSSTLTLSKADYEKHKVYACEVTHQGLSSPVTKSFNRGEC
107 relative (control = 100)	GpH7-B3 variant K334_10E/GpL16-k0 (Ho Ab) (antibody, human IgG1, kappa, Ho Ab: alteration in both H chains) heavy: not shown light: DIVMTQSPLSLPVTPGEPASISCQASESLVHSNRNTYLHWYLQKPGQSPQLLIYKVSNRFSGVPDRFSGSGSGTDFTLKISRVEAEDVGVYYCSQNTHVPPTFGQGTKVEIERTVAAPSVFIFPPSDEQLKSGTASVVCLLNNFYPREAKVQWKVDNALQSGNSQESVTEQDSKDSTYSLSSTLTLSKADYEKHKVYACEVTHQGLSSPVTKSFNRGEC
102 relative (control = 100)	GpH7-B3 variant P271_03V/GpL16-k0 (Ho Ab) (antibody, human IgG1, kappa, Ho Ab: alteration in both H chains) heavy: not shown light: DIVMTQSPLSLPVTPGEPASISCQASESLVHSNRNTYLHWYLQKPGQSPQLLIYKVSNRFSGVPDRFSGSGSGTDFTLKISRVEAEDVGVYYCSQNTHVPPTFGQGTKVEIERTVAAPSVFIFPPSDEQLKSGTASVVCLLNNFYPREAKVQWKVDNALQSGNSQESVTEQDSKDSTYSLSSTLTLSKADYEKHKVYACEVTHQGLSSPVTKSFNRGEC
100 relative (control = 100)	GpH7-B3 variant P271_04F/GpL16-k0 (Ho Ab) (antibody, human IgG1, kappa, Ho Ab: alteration in both H chains) heavy: not shown light: DIVMTQSPLSLPVTPGEPASISCQASESLVHSNRNTYLHWYLQKPGQSPQLLIYKVSNRFSGVPDRFSGSGSGTDFTLKISRVEAEDVGVYYCSQNTHVPPTFGQGTKVEIERTVAAPSVFIFPPSDEQLKSGTASVVCLLNNFYPREAKVQWKVDNALQSGNSQESVTEQDSKDSTYSLSSTLTLSKADYEKHKVYACEVTHQGLSSPVTKSFNRGEC
102 relative (control = 100)	GpH7-B3 variant P271_06M/GpL16-k0 (Ho Ab) (antibody, human IgG1, kappa, Ho Ab: alteration in both H chains) heavy: not shown light: DIVMTQSPLSLPVTPGEPASISCQASESLVHSNRNTYLHWYLQKPGQSPQLLIYKVSNRFSGVPDRFSGSGSGTDFTLKISRVEAEDVGVYYCSQNTHVPPTFGQGTKVEIERTVAAPSVFIFPPSDEQLKSGTASVVCLLNNFYPREAKVQWKVDNALQSGNSQESVTEQDSKDSTYSLSSTLTLSKADYEKHKVYACEVTHQGLSSPVTKSFNRGEC
102 relative (control = 100)	GpH7-B3 variant P271_07I/GpL16-k0 (Ho Ab) (antibody, human IgG1, kappa, Ho Ab: alteration in both H chains) heavy: not shown light: DIVMTQSPLSLPVTPGEPASISCQASESLVHSNRNTYLHWYLQKPGQSPQLLIYKVSNRFSGVPDRFSGSGSGTDFTLKISRVEAEDVGVYYCSQNTHVPPTFGQGTKVEIERTVAAPSVFIFPPSDEQLKSGTASVVCLLNNFYPREAKVQWKVDNALQSGNSQESVTEQDSKDSTYSLSSTLTLSKADYEKHKVYACEVTHQGLSSPVTKSFNRGEC
101 relative (control = 100)	GpH7-B3 variant P271_11K/GpL16-k0 (Ho Ab) (antibody, human IgG1, kappa, Ho Ab: alteration in both H chains) heavy: not shown light: DIVMTQSPLSLPVTPGEPASISCQASESLVHSNRNTYLHWYLQKPGQSPQLLIYKVSNRFSGVPDRFSGSGSGTDFTLKISRVEAEDVGVYYCSQNTHVPPTFGQGTKVEIERTVAAPSVFIFPPSDEQLKSGTASVVCLLNNFYPREAKVQWKVDNALQSGNSQESVTEQDSKDSTYSLSSTLTLSKADYEKHKVYACEVTHQGLSSPVTKSFNRGEC
101 relative (control = 100)	GpH7-B3 variant P271_12R/GpL16-k0 (Ho Ab) (antibody, human IgG1, kappa, Ho Ab: alteration in both H chains) heavy: not shown light: DIVMTQSPLSLPVTPGEPASISCQASESLVHSNRNTYLHWYLQKPGQSPQLLIYKVSNRFSGVPDRFSGSGSGTDFTLKISRVEAEDVGVYYCSQNTHVPPTFGQGTKVEIERTVAAPSVFIFPPSDEQLKSGTASVVCLLNNFYPREAKVQWKVDNALQSGNSQESVTEQDSKDSTYSLSSTLTLSKADYEKHKVYACEVTHQGLSSPVTKSFNRGEC
